According to US9457043B2, “Combination therapy using c-Met inhibitor and c-Myc inhibitor” (Samsung Electronics Co., Ltd., priority 2013, dated 2016):
Values belong to the molecule of their own block, whether it stands above or below them.

Columns and labels:
c-Met = c-Met (Homo sapiens, UniProt P08581); assay: Specificity of expressed scFv to c-Met; type: binding; conditions: scFv product after expression
Source text: For use in constructing an scFv of the huAbF46 antibody from the heavy and light chain variable regions of the huAbF46 antibody, a gene was designed to have the structure of “VH-linker-VL” for each of the heavy and the light chain variable region, with the linker including the amino acid sequence “[…]” (SEQ ID NO: 54). A polynucleotide sequence (SEQ ID NO: 55) coding for the designed scFv of huAbF46 was synthesized in Bioneer and an expression vector for the polynucleotide had the nucleotide sequence of SEQ ID NO: 56.

HT-29 cells = assay: Cell proliferation (CellTiter Glo) in HT-29 colon cancer cells; type: cell-based; conditions: L3-1Y/IgG2 0-2 μg/ml, 72 hours, FIG. 2
Source text: (§1) To confirm the effect of co-administration in a colon cancer cell on which an anti-c-Met antibody has no effect when administered alone, HT-29 (ATCC, HTB-38), Ls174T (ATCC, CCL-188), SW620 (ATCC, CCL-227), and LoVo (ATCC, CCL-229) cells were used for assaying the effect of co-administration on cell proliferation.
(§2) In particular, a mixture of c-Myc siRNAs (sic-Myc; mixture of siRNA pools wherein 5′-[…]-3′ (SEQ ID NO: 119), 5′-[…]-3′ (SEQ ID NO: 120), 5′-[…]-3′ (SEQ ID NO: 121), and 5′-[…]-3′ (SEQ ID NO: 122) are mixed at the molar ratio of 1:1:1:1) was reverse transfected to each of HT-29, Ls174T, SW620, and LoVo cells and each transfected cells were incubated in 96-well plate at the amount of 5000 cells/well (medium: 10% FBS in RPMI 1640 (GIBCO), incubation temperature: 37° C.). The reverse transfection was conducted using lipofectamine RNAi max (invitrogen). The reverse transfection was conducted by pre-incubating 10˜20 uM of siRNA diluted in opti-MEM (Gibco) and lipofectamine RNAi max diluted in opti-MEM (Gibco) at room temperature for 15 minutes, and then mixing with 5000 cells/well of the incubated cells, to allow reverse transfection. 24 hours after, the prepared cells were treated with L3-1Y/IgG2. […] The number of the cells was counted through luminescence signal, and the luminescence signal was recorded using Envision 2104 Multi-label Reader (Perkin Elmer). […]

c-Myc = c-Myc expression level by western blotting in HT-29 cells; type: cell-based; conditions: 1 μg/ml L3-1Y/IgG2 for 24 hours, western blot, beta-actin control, FIG. 7
Description: To reveal the causes of acquirement of effect by co-treatment of an anti-c-Met antibody and c-Myc siRNA on colon cancer cell on which the antibody solely has no effect, the expression level of c-Myc in HT29 (ATCC, HTB-38) treated with an anti-c-Met antibody was measured.
In particular, 20000 cells of HT-29 cell was incubated in 60 mm plate (medium: 10% FBS in RPMI 1640 (GIBCO), incubation temperature: 37° C.). 24 hours after, 1 μg/ml of L3-1Y/IgG2 was treated thereto. 24 hours after, the cells were lysed using Lysis buffer (Roche), thereby obtaining proteins. The concentration of the obtained proteins was measured, and 20 ug of each protein was loaded and subjected to western blotting. The expression amount of c-Myc was detected using c-Myc antibody (Santa-Cruz). A group which is not treated with L3-1Y/IgG2 was used as a control, and the expression amount of beta-actin was used as a control of expression amount of proteins.

SW620 cells = assay: Cell proliferation (CellTiter Glo) in SW620 colon cancer cells; type: cell-based; conditions: L3-1Y/IgG2 0-2 μg/ml, 72 hours, FIG. 4
Source text: as §1, §2

HCC1954 cells = assay: Cell proliferation (CellTiter Glo) in HCC1954 breast cancer cells; type: cell-based; conditions: L3-1Y/IgG2 0-2 μg/ml, 72 hours after antibody treatment, siRNA reverse transfected 24 hours before, FIG. 1
Source text: To confirm the effect of co-administration in a breast cancer cell on which an anti-c-Met antibody has no effect when administered alone, HCC1954 (ATCC, CRL 2338) cells were used for assaying the effect of co-administration on cell proliferation.
as §2, with “HCC1954” for “each of HT-29, Ls174T, SW620, and LoVo”, “the” for “each”

LoVo cells = assay: Cell proliferation (CellTiter Glo) in LoVo colon cancer cells; type: cell-based; conditions: L3-1Y/IgG2 0-2 μg/ml, 72 hours, FIG. 5
Source text: as §1, §2

Ls174T cells = assay: Cell proliferation (CellTiter Glo) in Ls174T colon cancer cells; type: cell-based; conditions: L3-1Y/IgG2 0-2 μg/ml, 72 hours, FIG. 3
Source text: as §1, §2

Sequence of c-Met (P08581 25-1390): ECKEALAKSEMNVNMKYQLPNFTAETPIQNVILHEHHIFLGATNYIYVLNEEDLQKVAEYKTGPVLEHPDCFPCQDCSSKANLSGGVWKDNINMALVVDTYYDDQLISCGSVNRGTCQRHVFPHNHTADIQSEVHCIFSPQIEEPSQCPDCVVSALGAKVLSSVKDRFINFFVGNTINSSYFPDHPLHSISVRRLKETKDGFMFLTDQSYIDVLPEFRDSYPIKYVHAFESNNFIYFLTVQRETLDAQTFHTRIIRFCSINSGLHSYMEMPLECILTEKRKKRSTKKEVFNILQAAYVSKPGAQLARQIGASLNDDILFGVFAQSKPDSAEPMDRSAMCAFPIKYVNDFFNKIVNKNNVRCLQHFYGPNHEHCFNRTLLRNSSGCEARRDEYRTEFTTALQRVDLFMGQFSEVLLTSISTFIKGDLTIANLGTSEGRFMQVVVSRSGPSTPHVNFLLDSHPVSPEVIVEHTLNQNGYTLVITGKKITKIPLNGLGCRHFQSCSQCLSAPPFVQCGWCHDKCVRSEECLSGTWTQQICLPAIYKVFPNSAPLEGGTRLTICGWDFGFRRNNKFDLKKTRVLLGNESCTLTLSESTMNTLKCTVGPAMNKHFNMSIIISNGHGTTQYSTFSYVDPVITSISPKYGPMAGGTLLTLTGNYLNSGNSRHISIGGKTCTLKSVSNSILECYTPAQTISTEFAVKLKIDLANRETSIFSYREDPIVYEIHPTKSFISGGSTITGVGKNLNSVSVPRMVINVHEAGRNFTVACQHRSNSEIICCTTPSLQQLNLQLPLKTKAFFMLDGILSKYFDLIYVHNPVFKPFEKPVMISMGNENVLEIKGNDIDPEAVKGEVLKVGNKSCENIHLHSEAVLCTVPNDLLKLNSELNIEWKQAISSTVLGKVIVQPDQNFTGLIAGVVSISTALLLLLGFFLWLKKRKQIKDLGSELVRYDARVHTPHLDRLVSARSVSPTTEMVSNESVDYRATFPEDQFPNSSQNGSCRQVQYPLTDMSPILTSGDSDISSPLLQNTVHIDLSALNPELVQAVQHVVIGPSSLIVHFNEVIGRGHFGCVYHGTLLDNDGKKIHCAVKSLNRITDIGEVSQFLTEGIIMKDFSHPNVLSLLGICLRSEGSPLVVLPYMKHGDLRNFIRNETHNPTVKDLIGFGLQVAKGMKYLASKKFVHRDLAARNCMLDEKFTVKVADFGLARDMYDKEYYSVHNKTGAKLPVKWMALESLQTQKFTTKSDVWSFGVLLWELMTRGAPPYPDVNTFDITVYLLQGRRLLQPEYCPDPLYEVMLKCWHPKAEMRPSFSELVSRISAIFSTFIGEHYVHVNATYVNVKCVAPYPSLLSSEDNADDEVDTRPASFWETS

- specificity to c-Met (c-Met): exhibit specificity to c-Met
B1: scFv of huAbF46: VH-linker-VL single-chain Fv of huAbF46 with linker SEQ ID NO: 54 (protein)
scFv: EVQLVESGGGLVQPGGSLRLSCAASGFTFTDYYMSWVRQAPGKGLEWLGFIRNKANGYTTEYSASVKGRFTISRDNSKNTLYLQMNSLRAEDTAVYYCARDNWFAYWGQGTLVTVSSGLGGLGGGGSGGGGSGGSSGVGSDIQMTQSPSSLSASVGDRVTITCKSSQSLLASGNQNNYLAWHQQKPGKAPKMLIIWASTRVSGVPSRFSGSGSGTDFTLTISSLQPEDFATYYCQQSYSAPLTFGQGTKVEIKR

B2: L3-1Y/IgG2: anti-c-Met antibody: huAbF46-H4-A1 heavy chain variable region, human IgG2 hinge and constant region, kappa light chain with tyrosine at position 36 (antibody)
heavy: EVQLVESGGGLVQPGGSLRLSCAASGFTFTDYYMSWVRQAPGKGLEWLGFIRNKANGYTTEYSASVKGRFTISRDNSKNTLYLQMNSLRAEDTAVYYCARDNWFAYWGQGTLVTVSSASTKGPSVFPLAPCSRSTSESTAALGCLVKDYFPEPVTVSWNSGALTSGVHTFPAVLQSSGLYSLSSVVTVPSSNFGTQTYTCNVDHKPSNTKVDKTVERKCCVECPPCPAPPVAGPSVFLFPPKPKDTLMISRTPEVTCVVVDVSHEDPEVQFNWYVDGVEVHNAKTKPREEQFNSTFRVVSVLTVVHQDWLNGKEYKCKVSNKGLPAPIEKTISKTKGQPREPQVYTLPPSREEMTKNQVSLTCLVKGFYPSDIAVEWESNGQPENNYKTTPPMLDSDGSFFLYSKLTVDKSRWQQGNVFSCSVMHEALHNHYTQKSLSLSPGK
light: DIQMTQSPSSLSASVGDRVTITCKSSQSLLASGNQNNYLAWYQQKPGKAPKMLIIWASTRVSGVPSRFSGSGSGTDFTLTISSLQPEDFATYYCQQSYSRPYTFGQGTKVEIKRTVAAPSVFIFPPSDEQLKSGTASVVCLLNNFYPREAKVQWKVDNALQSGNSQESVTEQDSKDSTYSLSSTLTLSKADYEKHKVYACEVTHQGLSSPVTKSFNRGEC
- cell proliferation inhibition effect (HT-29 cells): no cell proliferation inhibition effect is observed
- amount of c-Myc (expression) (c-Myc): increased amount of c-Myc
- cell proliferation inhibition effect (SW620 cells): no cell proliferation inhibition effect is observed
- cell proliferation inhibition effect (HCC1954 cells): no cell proliferation inhibition effect is observed
- cell proliferation inhibition effect (LoVo cells): no cell proliferation inhibition effect is observed
- cell proliferation inhibition effect (Ls174T cells): no cell proliferation inhibition effect is observed
